According to PMC12889889:

What follows are substances tested against FcγRIIIa (V158 variant).

Substance	ADCC Reporter Bioassay (WIL2-S target cells, Jurkat/NFAT-luc + FcγRIIIa V158 effector cells), EC50 of luciferase induction [ng/mL]
Truxima (rituximab-abbs), lot 1B1011, untreated (antibody)	9.09
Ruxience (rituximab-pvvr), lot GN4445, untreated (antibody)	6.06
Riabni (rituximab-arrx), lot 1141263, untreated (antibody)	13.6
Rituxan (rituximab), lot 3575428, untreated (antibody)	9.3
